Six molecules from US20240398942A1 (CHIA TAI TIANQING PHARMACEUTICAL GROUP, published 2024) can be followed below.

As usually defined, the IC50 is the concentration needed to halve the response being measured. What is called EC50 is the concentration needed to bring the measured effect to its halfway point. A higher EC50 goes with weaker potency.

The target of assay [1] is T1, human CD40-Fc protein (human, biotinylated (sites not given) in the capture ELISA and the benchmark blocking ELISA; not biotinylated in the ligand blocking ELISA).
T1 construct: also called biotinylated human CD40-Fc
Nature of the assay: competitive ELISA: human CD40-Fc coated, antibody titrated, blocked ligand biotinylated human CD40L-his (95 ng/mL), streptavidin-HRP, OD(450-630). Here is the method: The ability of the anti-CD40 antibody to block the binding of CD40 to CD40L was determined by competitive ELISA. Briefly, a human CD40-Fc protein (amino acid residues 21-193 of SEQ ID NO: 30 linked to the N terminus of amino acid residues 99-330 of SEQ ID NO: 28) dissolved in the immobilization buffer (carbonate/bicarbonate buffer) at a concentration of 2 μg/mL was immobilized on a 96-well plate at 100 μL/well and incubated overnight at 4° C. The next day, the plate was washed once with a washing buffer (PBS+0.05% v/v of Tween-20, PBST) before a PBST containing 5% w/v of skim milk was added. The plate was then incubated at 37° C. for 2 h for blocking. The plate was then washed 4 times with the washing buffer.
The anti-CD40 antibody of the present application or the benchmark was serially 5-fold diluted from 200 nM in a PBST containing 2.5% w/v of skim milk, and the serially diluted anti-CD40 antibody or benchmark was added at 100 μL/well to a plate coated with CD40-Fc protein and incubated at 37° C. for 40 min. The plate was then washed 4 times with the washing buffer before a biotinylated human CD40L-his protein (Sino Biological Inc., Cat. No. 10239-H08E, 95 ng/mL) was added at 100 μL per well. The plate was then incubated for 40 min at 37° C. The plate was washed again with the washing buffer. Then, an HRP-labeled streptavidin (Jackson Immunoresearch, Cat. No. 016-030-084, 1:10000 diluted in PBST buffer) was added at 100 μL/well and the plate was incubated at 37° C. for 40 min. The plate was washed again with the washing buffer. Finally, TMB was added and the reaction was stopped by adding 1 M H₂SO₄. The absorbance of each well was read on a microplate reader using the dual wavelength mode (TMB detection wavelength: 450 nm, reference wavelength: 630 nm). Curves of OD(450-630) values vs. antibody concentration were plotted. Data were analyzed using Graphpad Prism software, and IC₅₀ values were obtained.

Assay [2] concerns the target T2, full-length human CD40 on 293T-NF-κB-Luc-CD40 reporter cells (human, UniProt P25942 21-277).
T2 construct: Stably expressed full-length human CD40; also called uniprot P25942-1
The assay is described as follows: flow cytometry (FACS) on 293T-CD40 cells stably expressing full-length human CD40, PE-labeled goat anti-human IgG Fc, MFI. Here is the method: The binding of the anti-CD40 antibody to 293T-CD40 cells (prepared by Biosion) that stably express full-length human CD40 (uniprot #P25942-1, SEQ ID NO: 30) on the cell membrane was measured by flow cytometry (FACS). According to the instructions of lipofectamine 3000 transfection reagent (Thermo Fisher), 293T-CD40 cells were prepared by transfecting 293T cells with pCMV-T-P plasmid inserted with CD40 coding sequence between EcoRI and XbaI loci. Specifically, 293T-CD40 cells were harvested from cell culture flasks, washed twice, and resuspended in FACS buffer (phosphate buffered saline (PBS) containing 2% v/v of fetal bovine serum). The anti-CD40 antibody of the present application or the benchmark serially 4-fold diluted in the FACS buffer from 80 nM was added at 100 μL/well to a 96-well plate containing 2×10⁵ cells/well. The plate was incubated in an ice bath for 40 min. After the cells were washed twice with the FACS buffer, an affinity-purified R-phycoerythrin-labeled goat anti-human IgG (Fcγ fragment-specific, Jackson Immuno Research, Cat. No. 109-115-098, 1:1000 diluted in the FACS buffer) was added at 100 μL per well. After incubation at 4° C. for 40 min in the dark, the cells were washed thrice and resuspended in the FACS buffer. Fluorescence values were measured using Becton Dickinson FACS Canto II-HTS, and curves of fluorescence value vs. antibody concentration were plotted. Data were analyzed using Graphpad Prism software, and EC₅₀ values were obtained.
On the technique in general: In flow cytometry, cells or beads pass a laser one at a time.

Assay [3] deals with T1, human CD40-Fc protein. Nature of the assay: capture ELISA: antibody captured on coated goat anti-human IgG F(ab')2, biotinylated human CD40-Fc 1.15 nM, streptavidin-HRP, OD(450-630). The procedure: The plate was washed once with a washing buffer (PBS+0.05% v/v of Tween-20, PBST) and then blocked with 200 μL/well blocking buffer (PBST containing 5% w/v of skim milk) for 2 h at 37° C. The plate was washed 4 times, and the anti-CD40 antibody of the present application, BM1, BM2, and a negative control hIgG (human immunoglobulin for intravenous injection (pH 4), Hualan Biological Engineering Inc.) serially 5-fold diluted from 66.7 nM in a PBST containing 2.5% w/v of skim milk was added at 100 μL per well. The plate was incubated for 40 min at 37° C. and washed 4 times. A biotinylated human CD40-Fc protein (amino acid residues 21-193 of SEQ ID NO: 30 linked to the N terminus of amino acid residues 99-330 of SEQ ID NO: 28, dissolved in PBST containing 2.5% w/v of skim milk at a concentration of 1.15 nM) was added at 100 μL/well to a 96-well plate coated with the anti-CD40 antibody. The plate was incubated at 37° C. for 40 min and washed 4 times. An HRP-labeled streptavidin (diluted at 1:10000 in PBST, Jackson Immuno Research, Cat. No. 016-030-084) was added at 100 μL/well, and the plate was incubated at 37° C. for another 40 min. After the last wash, 100 μL/well of ELISA substrate TMB (Innoreagents, Cat. No. TMB-S-002) was added and the plate was incubated at room temperature. After 3-10 min, the reaction was stopped by adding 1 M H₂SO₄ at 50 µL/well, and the absorbance of each well was read on a microplate reader using the dual wavelength mode (TMB detection wavelength: 450 nm, reference wavelength: 630 nm). Curves of OD(450-630) values vs. antibody concentration were plotted. Data were analyzed using Graphpad Prism software, and EC₅₀ values were obtained.

Residue numbers refer to the chain shown, from its start.

B1: mouse anti-CD40 monoclonal antibody C1H1 (antibody, V domains shown)
VH: EVKLVESGGGLVKPGASLKLSCAASGFTFSNYGISWVRQTSDKRLEWVASISSGGDNTYYPDNVKGRFTISRENAKNTLYLQMSSLKSEDTALYYCARAGEKAMDYWGQGTSVTVSS
VL: DIVLTQSPVTLSVTPGDSVSLSCRASQTINNNLHWYQQKSHESPRLLIKYASQSISGIPSRFSGSGSGTDFTLSINSVETEDFGIYFCQQFSSWPLTFGAGTKLELK
notes: Parent mouse antibody from a hybridoma; the mouse constant regions are not; also called Mouse C1H1
In the assay with human CD40-Fc protein [1], B1 displayed a 50% inhibitory concentration (IC50) of 6.46 nM. Further, the EC50 came to 1.44 nM in assay [2] and 0.141 nM in the assay with human CD40-Fc protein [3].

B2: chimeric antibody C1H1 (antibody, human IgG1, kappa, V domains shown)
VH: B1 VH
VL: DIVLTQSPVTLSVTPGDSVSLSCRASQTINNNLHWYQQKSHESPRLLIKYASQSISGIPSRFSGSGSGTDFTLSINSVETEDFGIYFCQQFSSWPLTFGAGTKLELKR
notes: also called Chimeric C1H1
In the assay with human CD40-Fc protein [1], B2 had a half-inhibitory concentration (IC50) of 6.97 nM. Besides, the concentration for a half-maximal effect (EC50) worked out at 2.13 nM in assay [2] and 0.198 nM in the assay with human CD40-Fc protein [3].

B3: BM2 (selicrelumab) (antibody, human IgG2, kappa, V domains shown)
VH: not shown
VL: DIQMTQSPSSVSASVGDRVTITCRASQGIYSWLAWYQQKPGKAPNLLIYTASTLQSGVPSRFSGSGSGTDFTLTISSLQPEDFATYYCQQANIFPLTFGGGTKVEIKR
notes: Benchmark antibody, prepared in-house; also called CD40-BM2; benchmark
Consider B3, for which the half-inhibitory concentration (IC50) in the assay with human CD40-Fc protein [1] was determined as 7.22 nM. The EC50 in assay [2] was 3.52 nM; with human CD40-Fc protein [3] it was 0.72 nM.

B4: BM1 (dacetuzumab) (antibody, human IgG1, kappa, V domains shown)
VH: EVQLVESGGGLVQPGGSLRLSCAASGYSFTGYYIHWVRQAPGKGLEWVARVIPNAGGTSYNQKFKGRFTLSVDNSKNTAYLQMNSLRAEDTAVYYCAREGIYWWGQGTLVTVSS
VL: DIQMTQSPSSLSASVGDRVTITCRSSQSLVHSNGNTFLHWYQQKPGKAPKLLIYTVSNRFSGVPSRFSGSGSGTDFTLTISSLQPEDFATYFCSQTTHVPWTFGQGTKVEIKR
notes: Benchmark antibody, prepared in-house; also called CD40-BM1; benchmark
As to B4, in the assay with human CD40-Fc protein [1], the IC50 came out at 2.01 nM. The EC50 in assay [2] was 0.375 nM; in the assay with human CD40-Fc protein [3], 0.101 nM.

B5: humanized antibody huC1H1-V1 (antibody, human IgG2, kappa, V domains shown)
VH: EVQLVESGGGLVKPGGSLRLSCAASGFTFSNYGISWVRQAPGKGLEWVASISSGGDNTYYPDNVKGRFTISRDNAKNSLYLQMNSLRAEDTAVYYCARAGEKAMDYWGQGTLVTVSS
VL: EIVLTQSPATLSLSPGERATLSCRASQTINNNLHWYQQKPGQAPRLLIKYASQSISGIPARFSGSGSGTDFTLTISSLEPEDFAVYFCQQFSSWPLTFGGGTKVEIKR
notes: Human IgG2 / kappa
For B5, the 50% inhibitory concentration (IC50) in the assay with human CD40-Fc protein [1] is 7.91 nM. The concentration for a half-maximal effect (EC50) in assay [2] amounted to 4.95 nM; with human CD40-Fc protein [3], 0.574 nM.

B6: humanized antibody huC1H1-V2 (antibody, human IgG2, kappa, V domains shown)
VH: B5 VH with A49S
VL: B5 VL
notes: Human IgG2 / kappa
Consider B6, for which the IC50 in the assay with human CD40-Fc protein [1] came out at 6.1 nM. Also, the EC50 in assay [2] was determined as 4.64 nM; in the assay with human CD40-Fc protein [3], 0.424 nM.
